# From the Immune Epitope Database (IEDB)
# How the values were obtained:
# HLA-B*18:01 = assay: IEDB peptide-MHC binding, purified MHC/competitive/radioactivity; filed as Kd, often an IC50 or EC50 that approximates it; ≥ and ≤ were set here for values at or beyond the usual limits of such assays
# HLA-B*40:01 = assay: as above
# HLA-B*40:02 = assay: as above
# HLA-B*44:02 = assay: as above
# HLA-B*44:03 = assay: as above
# HLA-B*45:01 = assay: as above
# HLA-B*15:01 = assay: IEDB peptide-MHC binding, purified MHC/competitive/fluorescence; ≥ and ≤ were set here for values at or beyond the usual limits of such assays
# HLA-A*02:01 = assay: as above; conditions: source organism: Zaire ebolavirus
# HLA-A*24:02 = assay: as above; conditions: source organism: Zaire ebolavirus
# HLA-A*29:02 = assay: IEDB peptide-MHC binding, purified MHC/competitive/fluorescence; filed as Kd, often an IC50 or EC50 that approximates it; ≥ and ≤ were set here for values at or beyond the usual limits of such assays; conditions: source organism: Giardia lamblia ATCC 50803
# HLA-A*68:02 = assay: IEDB peptide-MHC binding, purified MHC/competitive/radioactivity; filed as Kd, often an IC50 or EC50 that approximates it; ≥ and ≤ were set here for values at or beyond the usual limits of such assays; conditions: source organism: Dengue virus 2 Jamaica/1409/1983
# HLA-B*35:01 = assay: as above; conditions: source organism: Dengue virus 2 Jamaica/1409/1983
# HLA-B*51:01 [1] = assay: as above; conditions: source organism: Dengue virus 2 Jamaica/1409/1983
# HLA-B*53:01 = assay: as above; conditions: source organism: Dengue virus 2 Jamaica/1409/1983
# HLA-B*58:01 = assay: as above
# HLA-B*48:01 = assay: IEDB peptide-MHC binding, purified MHC/direct/fluorescence; filed as Kd, often an IC50 or EC50 that approximates it; ≥ and ≤ were set here for values at or beyond the usual limits of such assays; conditions: source organism: West Nile virus
# HLA-B*07:02 = assay: as above; conditions: source organism: Escherichia coli O157:H7
# HLA-B*51:01 [2] = assay: as above; conditions: source organism: Escherichia coli O157:H7
# [3] = source organism: SARS coronavirus Tor2
# [4] = source organism: Zaire ebolavirus
# [5] = source organism: Mammarenavirus juninense
# [6] = source organism: Mammarenavirus whitewaterense
# [7] = source organism: Mammarenavirus machupoense
# [8] = source organism: Mammarenavirus brazilense
sequence,measurement,setting,value
VELKHFFFA,Kd,HLA-B*18:01; [3],1.71 µM
same,Kd,HLA-B*40:01; [3],≥ 29.8 µM
same,Kd,HLA-B*40:02; [3],0.103 µM
same,Kd,HLA-B*44:02; [3],15.6 µM
same,Kd,HLA-B*44:03; [3],2.63 µM
same,Kd,HLA-B*45:01; [3],0.0158 µM
LIVKTVLDH,IC50,HLA-B*15:01; [4],≥ 73.9 µM
FVTLDGQQF,IC50,HLA-A*02:01,≥ 121 µM
same,IC50,HLA-A*24:02,17.6 µM
same,IC50,HLA-B*15:01; [4],61.1 µM
HDLPLLCTL,Kd,HLA-B*18:01; [5],1.71 µM
same,Kd,HLA-B*40:01; [5],16.1 µM
same,Kd,HLA-B*40:02; [5],0.00852 µM
same,Kd,HLA-B*44:02; [5],9.82 µM
same,Kd,HLA-B*44:03; [5],19.1 µM
same,Kd,HLA-B*45:01; [5],≥ 74.6 µM
PPIPIWLLF,Kd,HLA-A*29:02,0.197 µM
MAAILAYTI,Kd,HLA-A*68:02,0.00473 µM
same,Kd,HLA-B*35:01,1.73 µM
same,Kd,HLA-B*51:01 [1],0.0101 µM
same,Kd,HLA-B*53:01,0.0132 µM
same,Kd,HLA-B*58:01; source organism: Dengue virus 2 Jamaica/1409/1983,0.00126 µM
RTIHHASAP,IC50,HLA-A*02:01,≥ 622 µM
same,IC50,HLA-B*15:01; [4],36.4 µM
SYFTNMFATWSP,IC50,HLA-B*15:01; source organism: Homo sapiens,5.8 µM
GRLVTVNPF,Kd,HLA-B*48:01,≥ 20 µM
AEQSRIFEEL,Kd,HLA-B*18:01; [6],≥ 20.8 µM
same,Kd,HLA-B*40:01; [6],10.2 µM
same,Kd,HLA-B*40:02; [6],0.0168 µM
same,Kd,HLA-B*44:02; [6],0.0574 µM
same,Kd,HLA-B*44:03; [6],0.43 µM
same,Kd,HLA-B*45:01; [6],0.206 µM
EEPAALLPL,Kd,HLA-B*18:01; [7],5.64 µM
same,Kd,HLA-B*40:01; [7],7.11 µM
same,Kd,HLA-B*40:02; [7],0.0571 µM
same,Kd,HLA-B*44:02; [7],≥ 39.9 µM
same,Kd,HLA-B*44:03; [7],≥ 41.2 µM
same,Kd,HLA-B*45:01; [7],≥ 23.4 µM
SEGVPDLLV,Kd,HLA-B*18:01; [3],≥ 77.5 µM
same,Kd,HLA-B*40:01; [3],≥ 29.1 µM
same,Kd,HLA-B*40:02; [3],≥ 37 µM
same,Kd,HLA-B*44:02; [3],≥ 37.1 µM
same,Kd,HLA-B*44:03; [3],≥ 20.9 µM
same,Kd,HLA-B*45:01; [3],13.9 µM
PEDQGNPIVL,Kd,HLA-B*18:01; [8],≥ 39.3 µM
same,Kd,HLA-B*40:01; [8],≥ 30.6 µM
same,Kd,HLA-B*40:02; [8],10.5 µM
same,Kd,HLA-B*44:02; [8],≥ 70.2 µM
same,Kd,HLA-B*44:03; [8],≥ 70.1 µM
same,Kd,HLA-B*45:01; [8],≥ 70 µM
LASAILNAHE,Kd,HLA-B*58:01; source organism: Dengue virus 4 Philippines/H241/1956,0.983 µM
LPQRHHIML,Kd,HLA-B*07:02,0.0015 µM
same,Kd,HLA-B*51:01 [2],≥ 20 µM
WMASVEPHW,Kd,HLA-B*58:01; source organism: Dengue virus 1 Brazil/97-11/1997,0.0133 µM
GETALALLL,Kd,HLA-B*18:01; [3],≥ 22.7 µM
same,Kd,HLA-B*40:01; [3],0.00122 µM
same,Kd,HLA-B*40:02; [3],0.00778 µM
same,Kd,HLA-B*44:02; [3],0.0314 µM
same,Kd,HLA-B*44:03; [3],0.0132 µM
same,Kd,HLA-B*45:01; [3],0.448 µM
